Test [1] concerns the target Fc-fusion protein receptor ectodomain of BMPR-IB. As to the kind of experiment: ratio KD(IA):KD(IB) from Biacore, relative to wild type.
For test [2] the target is unchanged. As to the kind of experiment: ratio of Biacore KDs, BMPR-IA as reference; measurement 1. A general note: Surface plasmon resonance follows binding to a sensor surface in real time, without labels.
For test [3] the target is unchanged. The test can be described thus: ratio of Biacore KDs, BMPR-IA as reference; measurement 2.
The target in test [4] is Fc-fusion protein receptor ectodomain of BMPR-II. As to the kind of experiment: SPR (Biacore T100), receptor ectodomain-Fc on protein G chip, equilibrium binding (KD eq).
For test [5], the target named is Fc-fusion protein receptor ectodomain of BMPR-IA. The test can be described thus: SPR (Biacore T100), receptor ectodomain-Fc on protein G chip, kinetic 1:1 fit; measurement 1.
Test [6] addresses Fc-fusion protein receptor ectodomain of BMPR-IB. The test is described as above.
Test [7] addresses Fc-fusion protein receptor ectodomain of BMPR-IA. The test can be described thus: SPR (Biacore T100), receptor ectodomain-Fc on protein G chip, kinetic 1:1 fit; measurement 2.
Test [8] deals with Fc-fusion protein receptor ectodomain of BMPR-IB. Described as above.

B1: recombinant human GDF-5 wild type (ligand)
chain: APLATRQGKRPSKNLKARCSRKALHVNFKDMGWDDWIIAPLEYEAFHCEGLCEFPLRSHLEPTNHAVIQTLMNSMDPESTPPTACVPTRLSPISILFIDSANNVVYKQYEDMVVESCGCR
Take B1: the fold higher IB affinity over IA compared to WT in test [1] turned out to be 1 fold. Also, the fold higher IB affinity over IA, KD(IA): KD(IB) in test [2] worked out at 122 fold; in test [3] it was 40 fold. Further, the Kd in test [4] was 32 nM; in test [5] it was 1 nM; in test [6] it was 0.008 nM; in test [7] it was 1.1 nM; in test [8], 0.027 nM.

B2: recombinant human GDF-5 mutant W414R (ligand)
chain: APLATRQGKRPSKNLKARCSRKALHVNFKDMGRDDWIIAPLEYEAFHCEGLCEFPLRSHLEPTNHAVIQTLMNSMDPESTPPTCCVPTRLSPISILFIDSANNVVYKQYEDMVVESCGCR
Take B2: the fold higher IB affinity over IA compared to WT in test [1] stood at 5.5 fold. Further, in test [2], the fold higher IB affinity over IA, KD(IA): KD(IB) came out at 668 fold. In addition, the Kd in test [5] stood at 20.3 nM; in test [6] it was 0.03 nM.

B3: human GDF-5 mutant R438K (ligand)
chain: APLATRQGKRPSKNLKARCSRKALHVNFKDMGWDDWIIAPLEYEAFHCEGLCEFPLKSHLEPTNHAVIQTLMNSMDPESTPPTCCVPTRLSPISILFIDSANNVVYKQYEDMVVESCGCR
On to B3, for which the fold higher IB affinity over IA compared to WT in test [1] was determined as 5.9 fold. In addition, the fold higher IB affinity over IA, KD(IA): KD(IB) in test [2] came out at 717 fold. The results for the Kd in test [4], in test [5] and in test [6] were 32 nM, 32.5 nM and 0.045 nM, respectively.

B4: human GDF-5 mutant W417F (ligand)
chain: APLATRQGKRPSKNLKARCSRKALHVNFKDMGWDDFIIAPLEYEAFHCEGLCEFPLRSHLEPTNHAVIQTLMNSMDPESTPPTCCVPTRLSPISILFIDSANNVVYKQYEDMVVESCGCR
As for B4, in test [1], the fold higher IB affinity over IA compared to WT came to 14.7 fold. Moreover, in test [3], the fold higher IB affinity over IA, KD(IA): KD(IB) came to 587 fold. The results for the Kd in test [7] and in test [8] were 27 nM and 0.046 nM, respectively.

B5: recombinant human GDF-5 mutant R399M (ligand)
chain: APLATRQGKRPSKNLKAMCSRKALHVNFKDMGWDDWIIAPLEYEAFHCEGLCEFPLRSHLEPTNHAVIQTLMNSMDPESTPPTCCVPTRLSPISILFIDSANNVVYKQYEDMVVESCGCR
With B5, the fold higher IB affinity over IA compared to WT in test [1] is 1.8 fold. Besides, in test [2], the fold higher IB affinity over IA, KD(IA): KD(IB) came out at 216 fold. Besides, the results for the Kd in test [4], in test [5] and in test [6] were 32 nM, 0.54 nM and 0.0025 nM, respectively.

B6: human GDF-5 mutant M412V (ligand)
chain: APLATRQGKRPSKNLKARCSRKALHVNFKDVGWDDWIIAPLEYEAFHCEGLCEFPLRSHLEPTNHAVIQTLMNSMDPESTPPTCCVPTRLSPISILFIDSANNVVYKQYEDMVVESCGCR
In the case of B6, in test [1], the fold higher IB affinity over IA compared to WT was 8.3 fold. Also, the fold higher IB affinity over IA, KD(IA): KD(IB) in test [3] came out at 333 fold. Besides, the figures for the Kd in test [7] and in test [8] were 13 nM and 0.039 nM, respectively.

B7: human GDF-5 mutant W417R (ligand)
chain: APLATRQGKRPSKNLKARCSRKALHVNFKDMGWDDRIIAPLEYEAFHCEGLCEFPLRSHLEPTNHAVIQTLMNSMDPESTPPTCCVPTRLSPISILFIDSANNVVYKQYEDMVVESCGCR
Regarding B7, the fold higher IB affinity over IA compared to WT in test [1] is 56.2 fold. For the same molecule, the fold higher IB affinity over IA, KD(IA): KD(IB) in test [3] was found to be 2650 fold. Also, the Kd in test [7] worked out at 98 nM; in test [8], 0.037 nM.

B8: human GDF-5 mutant S439K (ligand)
chain: APLATRQGKRPSKNLKARCSRKALHVNFKDMGWDDWIIAPLEYEAFHCEGLCEFPLRKHLEPTNHAVIQTLMNSMDPESTPPTCCVPTRLSPISILFIDSANNVVYKQYEDMVVESCGCR
Consider B8, for which the fold higher IB affinity over IA compared to WT in test [1] stood at 19.7 fold. Besides, the fold higher IB affinity over IA, KD(IA): KD(IB) in test [2] came to 2400 fold. For the same molecule, the Kd in test [4] was 10 nM; in test [5] it was 43.4 nM; in test [6], 0.01 nM.

B9: recombinant human GDF-5 mutant I449V (ligand)
chain: APLATRQGKRPSKNLKARCSRKALHVNFKDMGWDDWIIAPLEYEAFHCEGLCEFPLRSHLEPTNHAVVQTLMNSMDPESTPPTCCVPTRLSPISILFIDSANNVVYKQYEDMVVESCGCR
For the molecule B9, the fold higher IB affinity over IA compared to WT in test [1] was 5.5 fold. Besides, the fold higher IB affinity over IA, KD(IA): KD(IB) in test [3] was determined as 219 fold. The Kd in test [7] was found to be 5.7 nM; in test [8], 0.026 nM.

B10: recombinant human GDF-5 mutant R399E (ligand)
chain: APLATRQGKRPSKNLKAECSRKALHVNFKDMGWDDWIIAPLEYEAFHCEGLCEFPLRSHLEPTNHAVIQTLMNSMDPESTPPTCCVPTRLSPISILFIDSANNVVYKQYEDMVVESCGCR
On to B10, for which the fold higher IB affinity over IA compared to WT in test [1] was 1.1 fold. Also, in test [2], the fold higher IB affinity over IA, KD(IA): KD(IB) worked out at 130 fold. In addition, the Kd stood at 32 nM in test [4], 22.5 nM in test [5] and 0.172 nM in test [6].

B11: recombinant human GDF-5 mutant S439E (ligand)
chain: APLATRQGKRPSKNLKARCSRKALHVNFKDMGWDDWIIAPLEYEAFHCEGLCEFPLREHLEPTNHAVIQTLMNSMDPESTPPTCCVPTRLSPISILFIDSANNVVYKQYEDMVVESCGCR
For the molecule B11, in test [1], the fold higher IB affinity over IA compared to WT amounted to 14.5 fold. Also, the fold higher IB affinity over IA, KD(IA): KD(IB) in test [3] is 581 fold. Moreover, the Kd was found to be 25 nM in test [7] and 0.043 nM in test [8].

A word on the Kd: it is the constant that tells how readily two partners part at equilibrium. A higher Kd goes with weaker binding.

(Values after patent US20140369978A1.)
